How the values were obtained:
[1] = system: MSCs; test: MSC chondrogenic differentiation (glycosaminoglycans, Alcian Blue); assay type: cell-based, Human; settings: for decreased MSC chondrogenesis: tropoelastin addition during differentiation
Description: (§1) MSCs were grown in various media formulations and on bare or protein-coated tissue culture wells for 7 days. The expanded cells were harvested, re-seeded on TCP, and differentiated into the adipogenic, osteogenic and chondrogenic lineages using the hMSC Adipogenic BulletKit®, hMSC Osteogenic BulletKit®, and hMSC Chondrogenic BulletKit® (Lonza), respectively, following the manufacturer's instructions.
To confirm chondrogenesis, cell pellets that had been induced for 14 days were washed with PBS, embedded in 1.5% (w/v) agar containing 0.85% (w/v) NaCl, and fixed with 10% (v/v) formalin overnight. The samples were dehydrated in 70% (v/v) ethanol for 1 day, then paraffin-embedded, sectioned, mounted onto slides, stained with Alcian Blue (pH 2.5) for 1 hour and counterstained with Nuclear Fast Red. Samples were imaged with an Olympus VS120 Slide Scanner.

[2] = system: MSCs; test: MSC osteogenic differentiation (mineralized calcium, Alizarin Red S); assay type: cell-based, Human
Description: as §1
(§2) To confirm osteogenesis, cells that had been induced for 14 days were fixed and stained for mineralized calcium deposits with Alizarin Red S, as previously described. Cells from the adipogenic and osteogenic experiments were imaged with a Zeiss Axio Vert.A1 microscope using an AxioCam 105 colour camera.

[3] = system: MSCs; test: MSC adipogenic differentiation (intracellular lipid, Oil Red O); assay type: cell-based, Human
Description: as §1
(§3) To confirm adipogenesis, cells that had been induced for 25 days were washed with PBS, fixed with 10% (v/v) formalin for 30 min, then washed with water. Cells were incubated with 60% (v/v) isopropanol for 5 min and stained for intracellular lipid droplets with 1.8 mg/mL Oil Red O in isopropanol for 20 min. Excess stain was removed with 5 washes of water.

[4] = system: MSCs; test: Tri-lineage differentiation of MSCs expanded with tropoelastin; assay type: cell-based, Human; settings: substrate-bound or soluble, replacing growth factors, normal or reduced serum media
Description: as §1, §3, §2
To confirm chondrogenesis, cell pellets that had been induced for 14 days were washed with PBS, embedded in 1.5% (w/v) agar containing 0.85% (w/v) NaCl, and fixed with 10% (v/v) formalin overnight. […]

[5] = system: MSCs; test: Cell migration via chemotaxis (Boyden chamber); assay type: cell-based, Human; settings: tropoelastin in solution, lower chamber
Description: Chemotaxis was measured using a fluorimetric 96-well Boyden chamber assay system (QCM Chemotaxis Cell Migration Assay, Millipore) according to the supplier's instructions. Normal, tropoelastin-supplemented, or growth factor-supplemented media was added to the lower chamber of the well plate, while MSCs were seeded at 14,300 cells/cm^2 in normal media into the upper chamber. Where indicated, integrin-blocking antibodies were added at optimized concentrations to the upper chamber with the cells. Cells that migrate through the permeable membrane into the lower chamber were detached and quantified. Normalized cell migration was calculated by subtracting the extent of undirected cell migration (where no chemoattractant was added to the lower chamber) from each experimental result.

[6] = system: MSCs; test: Cell migration via haptotaxis; assay type: cell-based, Human; settings: 5 days post-seeding
Description: Polydimethylsiloxane (PDMS) was casted into 3D printed molds to create a circular shape with three rectangular cutouts, in which the middle rectangle was equidistant from the flanking rectangles. The PDMS stencil was placed inside a well plate and pressed tightly against the well surface to create watertight seal. The top and bottom rectangular chambers were filled with tropoelastin solution (20 μg/mL) or PBS, respectively, and air dried overnight. MSCs (1.2×10^6 cells/cm^2) were seeded into the middle chamber and allowed to attach for at least 2 hrs. The PDMS stencil was removed, and the culture well was covered with normal media. For up to 5 days, cells were stained daily with NucBlue™ Live ReadyProbes™ Reagent (Life Technologies) for 15 min, washed once with PBS, covered with normal media, and imaged under fluorescence at 360/460 nm using a Nikon Ti-E Live Cell Microscope. Cell migration into regions defined by tropoelastin or PBS coating was quantified via relative fluorescent areas using ImageJ software.

[7] = system: MSCs; test: MSC attachment to substrate-bound tropoelastin (EDTA inhibition, cation add-back); assay type: cell-based, Human; settings: cation-free environment
Description: MSCs were seeded at a density of 1.5×10^5 cells/cm^2 on tropoelastin-coated wells in serum-free α-MEM containing 0-9 mM ethylenediaminetetraacetic acid (EDTA) (Sigma-Aldrich®). The cells were incubated for 1 hour at 37° C., then washed with PBS to remove unbound cells. Bound cells were fixed, stained and measured for absorbance at 570 nm as described for the proliferation assays. The percentage of cell attachment was determined relative to a set of standards with known cell numbers.
MSCs were washed with cation-free PBS, centrifuged at 270 g for 5 min, and resuspended in cation-free PBS. The cells were seeded at a density of 1.5×10^5 cells/cm^2 on tropoelastin-coated wells in the presence of 0-0.5 mM cation (Mg^2+, Ca^2+ or Mn^2+) and incubated for 45 min at 37° C. Bound cells were fixed and stained, and cell attachment was quantified as previously described.

[8] = target: αv integrins (all αv subunit integrins) on human MSCs (human, UniProt P06756 31-1048); test: cell-based or functional assay
αv integrins (all αv subunit integrins) on human MSCs, sequence (P06756 31-1048, form in doubt): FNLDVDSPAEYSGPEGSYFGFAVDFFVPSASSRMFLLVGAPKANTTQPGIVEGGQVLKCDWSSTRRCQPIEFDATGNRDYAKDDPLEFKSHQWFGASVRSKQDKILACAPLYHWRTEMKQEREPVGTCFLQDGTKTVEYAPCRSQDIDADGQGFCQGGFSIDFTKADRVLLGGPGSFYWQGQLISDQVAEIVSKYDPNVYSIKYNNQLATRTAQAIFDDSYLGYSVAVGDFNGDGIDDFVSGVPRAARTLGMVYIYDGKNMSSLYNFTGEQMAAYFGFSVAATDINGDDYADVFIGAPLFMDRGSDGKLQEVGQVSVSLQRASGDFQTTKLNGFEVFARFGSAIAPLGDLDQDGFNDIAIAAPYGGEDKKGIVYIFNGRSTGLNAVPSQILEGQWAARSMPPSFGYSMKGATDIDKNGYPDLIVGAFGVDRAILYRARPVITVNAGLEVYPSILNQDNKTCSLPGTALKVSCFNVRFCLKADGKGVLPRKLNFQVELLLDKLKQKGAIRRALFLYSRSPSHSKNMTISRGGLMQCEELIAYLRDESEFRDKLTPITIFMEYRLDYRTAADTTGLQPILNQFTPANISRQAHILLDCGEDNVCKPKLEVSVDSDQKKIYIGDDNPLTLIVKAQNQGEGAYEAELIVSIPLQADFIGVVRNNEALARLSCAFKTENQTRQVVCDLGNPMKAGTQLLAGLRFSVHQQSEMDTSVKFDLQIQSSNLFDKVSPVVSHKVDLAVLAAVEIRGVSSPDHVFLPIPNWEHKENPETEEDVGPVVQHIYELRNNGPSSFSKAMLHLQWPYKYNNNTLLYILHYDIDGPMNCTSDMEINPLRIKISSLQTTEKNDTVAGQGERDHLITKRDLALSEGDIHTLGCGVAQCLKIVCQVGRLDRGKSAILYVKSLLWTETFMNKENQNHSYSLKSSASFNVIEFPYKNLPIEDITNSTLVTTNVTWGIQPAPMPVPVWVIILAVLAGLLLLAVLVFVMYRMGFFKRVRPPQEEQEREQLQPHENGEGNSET

[9] = TE days 2-5, 3-6 or 4-7 of 7-day proliferation period
[10] = tropoelastin addition during MSC expansion
[11] = tropoelastin addition during differentiation
[12] = tropoelastin during both expansion and differentiation stages

focal adhesions per cell (vinculin staining) of MSCs on tropoelastin compared to those on BSA [8]: 1.5 fold
B1: recombinant human tropoelastin (Elastagen) (ligand, UniProt P15502-2 27-724, looked up)
chain: GGVPGAIPGGVPGGVFYPGAGLGALGGGALGPGGKPLKPVPGGLAGAGLGAGLGAFPAVTFPGALVPGGVADAAAAYKAAKAGAGLGGVPGVGGLGVSAGAVVPQPGAGVKPGKVPGVGLPGVYPGGVLPGARFPGVGVLPGVPTGAGVKPKAPGVGGAFAGIPGVGPFGGPQPGVPLGYPIKAPKLPGGYGLPYTTGKLPYGYGPGGVAGAAGKAGYPTGTGVGPQAAAAAAAKAAAKFGAGAAGVLPGVGGAGVPGVPGAIPGIGGIAGVGTPAAAAAAAAAAKAAKYGAAAGLVPGGPGFGPGVVGVPGAGVPGVGVPGAGIPVVPGAGIPGAAVPGVVSPEAAAKAAAKAAKYGARPGVGVGGIPTYGVGAGGFPGFGVGVGGIPGVAGVPGVGGVPGVGGVPGVGISPEAQAAAAAKAAKYGVGTPAAAAAKAAAKAAQFGLVPGVGVAPGVGVAPGVGVAPGVGLAPGVGVAPGVGVAPGVGVAPGIGPGGVAAAAKSAAKVAAKAQLRAAAGLGAGIPGLGVGVGVPGLGVGAGVPGLGVGAGVPGFGAVPGALAAAKAAKYGAAVPGVLGGLGALGGVGIPGGVVGAGPAAAAAAAKAAAKAAQFGLVGAAGLGGLGVGGLGVPGVGGLGGIPPAAAAKAAKYGAAGLGGVLGGAGQFPLGGVAARPGFGLSPIFPGGACLGKACGRKRK
effect on chondrogenic differentiation ([1]; TE added during the induction stage): inhibited chondrogenic differentiation | pro-chondrogenic effects versus timing of exposure during expansion [1, 9]: observed only when tropoelastin was present in the early stages of expansion | concentration during induction stage that significantly inhibited chondrogenic differentiation ([1]; TE present during induction): ≥ 2 µg/mL | glycosaminoglycan production ([1]; expanded in 20 μg/ml TE, induced in the absence of TE): highest extent of glycosaminoglycan production | glycosaminoglycan levels compared to cells expanded without TE ([1]; expanded in presence of TE, TE not present during differentiation): increased glycosaminoglycan levels | increased chondrogenesis compared to cells exposed from days 4-7 ([1]; exposed days 2-5 of expansion period): 71% | improved chondrogenesis [1, 10]: 134% | decreased MSC chondrogenesis ([1]; cells expanded with tropoelastin): 80% | decreased MSC chondrogenesis ([1]; cells expanded without tropoelastin): 63% | osteogenesis versus timing of exposure during expansion [2, 9]: maximum effect associated with tropoelastin exposure in the later stages of expansion | increased osteogenesis compared to cells grown on TCP ([2]; cells grown on coating): 113% | mineralized calcium ([2]; cells induced and exposed to TE): increase in mineralized calcium concentrations | MSC osteogenesis with tropoelastin added to hyaluronic acid ([2]; different molecular weight hyaluronic acid formulations): promoted MSC osteogenesis | increased osteogenesis compared to cells exposed from days 2-5 ([2]; exposed days 4-7 of seven-day expansion): 24% | osteogenesis dose response ([2]; grown in at least 2 μg/mL TE and induced in 20 μg/mL TE): Maximum osteogenesis | improved osteogenesis [2, 11]: 55% | increased osteogenesis [2, 12]: up to 131% | improved osteogenic potential ([2]; tropoelastin present during MSC expansion): 42% | intracellular lipid formation ([3]; 20 μg/ml TE during both expansion and induction stages): increase in intracellular lipid formation | intracellular lipid formation compared to culture lacking TE ([3]; induced in the presence of TE): increase in intracellular lipid formation | increased adipogenesis [3, 10]: 33% | increased adipogenesis [3, 11]: 19% | promoted adipogenesis [3, 12]: 69-85% | differentiation capacity after expansion [4]: exhibited the capacity for multi-lineage differentiation | chemotactic response of MSCs [5]: dose-dependent chemotactic response | more cells migrated to the tropoelastin-coated region compared to the control [6]: 45±8% | MSC adhesion to tropoelastin [7]: 20.0±2.1%
